Source: a protein production outcome set (Wang et al. 2014)

Test: label from the status in PepcDB records

Sequence | protein production
MESFNTFVRQYNDQHAEAIAKGELEALAESSSAFIEKASGIKSRFVMNKEGILDPQRMVPYLPERSNDEWSILCEMAVAAAREALQRAGRSAADIDGVIVACSNLQRAYPAIAVEVQAALGIQGYGYDMNVACSSATFGIQAATTAIQTGQARAILMVNPEICTGHLNFRDRDSHFIFGDACTAVIVERADLAVSKHQFDIVSTRLLTQFSNNIRNNFGFLNRADESGIGKRDKLFVQEGRKVFKDVCPMVAELIGEHLAANEIQVAEVKRFWLHQANLNMNLLITRKLLGRDAEAHEAPVILDSYANTSSAGSVIALHKHQDDLPSGAIGVLSSFGAGYSIGSVILRKH | failed
MSCGKPQETYSTSSILTREQFEIQHQEEDTIGEQVIFIDGVAYNSRGFRVCGAPNQRGGFCARFGQCPFHKDKVTTFKMSEETVSEFPRQLLTESCNLLQNNERKFKNAWKLDEHHRFLVALKKFGHGNWRQIADYVETRSASQCQSHAQKYYLRKRKLASNANLKRSIFDLIDEDTLSVEIGEEDTWNIIQKCPSKEAQGSVRSRSKTLQRMSTDSSVESYPIRELSTVDSELSTLQTYKQASFFIRIFRNGVFSHGVDLELPNSLASFFIKAAQLLDMSVATKAYTRSGFEISSLHEVCPGDILWISSGEEFIFPSPVQYIET | not failed
FGLETVSENELAHSEEELRIILSESYKSGEINQSEFKYVNKIFEFDDRLAKEIMIPRTEIVSLPHDIKISEMMDIIQIEKYTRYPVEEGDKDNIIGVINIKEVLTACISGEVSVDSTISQFVNPIIHVIESAPIQDLLVKMQKERVHMAILSDEYGGTAGLVTVEDIIEEIVGEIR | not failed
MALEQTLKKDWYSILGADPSANMSDLKQKYQKLILLYHPDKQSADVPAGTMEECMQKFIEIDQAWKILGNEETKKKYDLQR | not failed
RQQSMAERHDYDQKEEKTDGGELVSSYMCSPETAAEEFEISKKLYAQLTGRSQSEKHDIIMYRIIQSFKPDEVSPEEAHKIGCELAMKFTGGQHQFVVATHTDKRHIHTHIEFNSTNLNCDAKFQNVKNSAFILRRMNDELCRAHGLSVIENPKKKARPQKEMAAAQYGVSHKKQLQQAIDRLLPECNHYEEFLAKMRAEGYEVVDGKNPGFRLPGWDRPTRVNRLG | not failed
MTLPSTPMPPAGSRKILLDDFQHVGSESHLGQCVNRSWTRHNCGHLENASIICTSEGMALSPHLDGNRQPSNLDNLREKAFLYQRHQHLLKFHHQLPAAGACMEVRLLNGTGRCLGRVEVLIQGTWGTVCDHFWNLAEAAVVCRQLQCGQAMAAHFGASSGKVLLDDMQCVGSKSHLGRCVHRGWARHNCGHLEDASVICAGEGLVVNLHLEGCF | failed
MVEFLNKKKKSAQRPINLNGSFIFILILTFEFERRVKVDTADIFQRTMMLIGEDGLKKLSNVNIAVCGLGGVGSFAFEALVRCGIQNFVILDKDRVSVSNLNRQLIATVSNIGKSKVDIAYERALDINPFVNVVKVQKEINPENVEELLGNTKIDYIVDAIDDVSAKIALIKFAISRGIKIISSMGMGNRLNPSLLRISDIYSTKNCPLAKKIRSILRKEGIKKLKVVYSEEKPLKPDYKFLKEKTQKAHVPGSISFVPPVAGFLMAYEVVKDLLGW | failed
MESEKKIAHEIGGVKNDALRFGLHGVKSNIIGSHPLESSYESEKKSKEALKRTVIAHAYGTALPLKMDMDRQILSRFQRPPGPIPSSMLGLEVYTGAVDDFGFEDYLNDPRDSETFKPVDFHHGMEVRLGISKGPIYPSFM | failed
MRQYNPPAMNIPQEVARRRTFAIISHPDAGKTTLTEKLLLFAGAIQIAGSVKARKASRHASSDWMEIEKQRGISVASSVMQMEYRDCVINLLDTPGHQDFSEDTYRVLTAVDAALMVIDAANGVEPQTIRLLQVCRARNTPIITFINKLDREVREPLELLSEIEGHLGMDTVPFSWPVGMGKAFGGVFDIRRNRMRIFRAGQERRGEDDEFIDGLDNPEIPRRFGAAFAQASGEIELINEAAPAFDREAFLAGKQTPVFFGSAINNFGVQEVLDALVDQAPAPGPRQALEREVRPDEPKFTGVVFKVQANMDPAHRDRVAFVRVSSGRFERGMRLKVARTGKEMRPNNVVSFLSQRRELLDEAYAGDVIGIPNHGVLQLGDVLTEGESLRFTGLPFFAPELFQAVEVKDPLRTKQLRVGLTQLGEEGAIQVFRPEAAGGALLLGAVGQLQFEVVAHRLKTEYGVDARMMPSRYTSARWITSDDPRALRKFMDANAAHIAYDVVDAAAFLITSPAQLRVAEDLYPNVKFHALREHGGKVFGDKA | failed
MNRVDLSIFIPDSLTAETGDLKIKTYKVVLIARAASIFGVKRIVIYHDDADGEARFIRDILTYMDTPQYLRRKVFPIMRELKHVGILPPLRTPHHPTGKPVTGEYRQGLTVKRVKKGTLVDIGADKLALCREKLTVNRIMSFRVVRLGKEILIEPDEPEDRYWGYEVLDTRRNLAESLKTVGADVVVATSRNASPITSILDEVKTRMRGAREAAILFGGPYKGLPEIDADIWVNTLPGQCTETVRTEEAVLATLSVFNMLTQIDEKDE | not failed
MEKMLSTYIEEAMEFYAIGKGADFKAIIEKGIASCMTTYSTYDRELYKAYALLATYLSNHAFKIIKSRPAFQAMAINCFDQLDSLRQQHDPHLQVTKGFLWMLSSSRAQDADALLISVLRNHPKNILALIGRACLAYNRQDYIGALGYFKSVLLIQPQGMADVWVGIGHCFWKMGELEKAQLSFQIALEHNGQCLNAALALALVKFEHNDEQSYQDGKMLLTAAYKENNKNPDLLSILAGMYYADGNHKLVWSFAGNAIKFTANKHIESRNYFQIAKSYHATGQFESAKKYYLLSAKSAPDGYILPLVGVAQMYLHEGELNRSKAFLESFLTSEPDEPVVMDLLAKIYLEYKCPEKIDKAIEMLVKVVESASYHQNTNSWLNLAFAYEQKRLWAHGVNAYQKAIDIYLSQGHQIPIEWLNNLASSQLMAKMPEKALNTLDDALSKCRVMNSDNKTTNLLSLQYNRGLVLEELHMFTLAAENYKSITKEYSSYHDCYLRLGVMAIQKNNHTQAIEHLKDILVEDNLNMTARTYMGDCFKGLSLDKFATFNYNMILARQSKFTNTYVSMAMGNFCLEKLQNWIAEGNFRAARKQQEKALQCFGKILDCNPKNLWAANGIGAVLSSCNNLSAGGAIFKQIIECGNKCIPAIINSAHIALVSGQYRLAIQTYERCLKDHLPKNRVDVMHCLAKALYDNGDARKAKMWLLKVRHLVPHDPFVIFNLGLAIKKETEQALALPRPQLDELMGLDGLLKVAFKLFCHINLNHPKISVRVSAKYAEDCQNLMTELIAKKRQASESHAMEEDRVQLQKQRYRDHIEHQRQQELQREEEERVRRENLKIQRKEVLERTRKIISAPLAPDVPKKSAGNGRAKKNQENGDGKAKKSGPPKKKTRKRAAGKEQEDIEPLKKPKSKEFIDTDDDNSE | failed
MLYTTFSAIIPSFLIILIGYTVGKIFSEETMGLASKVAIWVMVPTVTFTFINEYTPSFSTLGEFGLGVAIIFVIFYLYSRLFKEKKEVIHVTAVTANVGYLGYPILLSLWGEEALSLGVVYATLNIIMFSAVLPMFLGEKVNVKNLFKLPYVYALVAGFLTGKLGWSFRELPEWLVNAILMLKQSAIPYLLIYVGLSVSKLKLGRHLSKIGGIIVVNKLFLAPLIALVFALIYGLEGLTAKVFVLETAMPAAVNAVILTSALGGDSETVSYGVTLTTFFAIFTLPVWAVILESIFG | failed
MKKNIVVLVLIVLIIFSAGSGCISSDVISSANTSSDEADGNTGENSALGKSADSEPDQANITPYGKSSPYLYWEYELGDVTPENTLGGRSSVQDCVSFAPDGKSVATGTGSNLTVVSVSEKNVLWTKILSGNISDLTFSEDGKYLLVGEKSADGCIYSLDANTGEEIRTYRTSDDLGTDSNPKYQPCIYKITAAEDSVYVAAGRYWKDSKYGLASRVYGFSPDGTFSWKLPATENYARSVNWIDASQDGKNVVYSIGDWTNSLESDAVVYSVDAGGKLRWKYEIPALRPYFVSAAIWHGLDVSEDGSLVTAYTGDGRTYLFYDAEMKDPGDGKSEWYSEEYQSNVTTPEELEGSAIYTYGENAKIAADNEILYLTGATLPAYYPDNIPMAHPLENSLISCDAEKGETSWTYNLGGRCAGIFFSQDMRYFVLPVGKDTSTGDTRVHGVYVFDSRKSGNGNSKLLWTFRTEGVVENAAISSNCTVAAVEVPLQLENGDVTGKHRLIIVR | failed
MITVFGLKSKLAPRREKLAEVIYNSLHLGLDIPKGKHAIRFLCLEKEDFYYPFDRSDDYTVIEINLMAGRMEGTKKRLIKMLFSELEYKLGIRAHDVEITIKEQPAHCWGFRGMTGDEARDLDYDIYV | not failed
MGHHHHHHSHCDSDCLWVGLAGPQILPPCRSIVRTLHQHKLGRASWPSVQQGLQQSFLHTLDSYRILQKAAPFDRRATSLAWHPTHPSTVAVGSKGGDIMLWNFGIKDKPTFIKGIGAGGSITGLKFNPLNTNQFYASSMEGTTRLQDFKGNILRVFASSDTINIWFCSLDVSASSRMVVTGDNVGNVILLNMDGKELWNLRMHKKKVTHVALNPCCDWFLATASVDQTVKIWDLRQVRGKASFLYSLPHRHPVNAACFSPDGARLLTTDQKSEIRVYSASQWDCPLGLIPHPHRHFQHLTPIKAAWHPRYNLIVVGRYPDPNFKSCTPYELRTIDVFDGNSGKMMCQLYDPESSGISSLNEFNPMGDTLASAMGYHILIWSQEEARTRK | failed
MFALPQAGDRRGEIIKVLLSNGWDYMNGLLTLGKVGEPQIPTPEVLTKILVELGPFYIKLGQLLSTRPDLLPPRYINALTALQSNVPPLPWSAIEDLLQREFPQPLGETFQEIESEPIAAGSIGQIHRAVLQSGETVAIKVKRPGIDVIVEQDSLLIKDVAELLALTEFGQNYDIVKLADEFTQTVKAELNFDTEAAYTNNLRTNLAKTTWFDPNQLVIPKVYWELTNQKFLVLEWLDGVPILTADLTQPPSDKDIAEKKKEITTLLFRAFFQQLYVDGFFHADPHPGNIFYLADGRLALIDCGMVGRLDPRTRQLLTEMLLAIVDLDAKRCAQLTVELSESVGRVNFQRLEVDYERMLRKYYDLSLSEFNFSEVVYEFLRIARVNKLKVPACLGLYAKCLANLEGAG | failed
MALAEDDGFYMGVGYQIGGAQQNIDNKGSTLRNNVINNFRQVGVGMAGGNGLLALATNTTMDALLGIGNQIVNTNTTVSNNNAELTQFKKILPQIEQRFETNKNAYSVQALQVYLSNVLYNLVNNSNNGSNNGVVPEYVGIIKVLYGSQNEFSLLATESVVLLNALTRVNLDSNSVFLKGLLAQMQLFNDTSSAKLGQIAENLKNGGAGSMLQKDVKTISDRIATYQENLKQLGGMLKNYDEPYLPQFGPGTSSQHGVINGFGIQVGYKQFFGNKRNIGLRYYAFFDYGFTQLGSLSSAVKANIFTYGAGTDFLWNIFRRVFSDQSLNVGVFGGIQIAGNTWDSSLRGQIENSFKEYPTPTNFQFLFNLGLRAHFASTMHRRFLSASQSIQHGMEFGVKIPAINQRYLRANGADVDYRRLYAFYINYTIGF | failed
MIRLSNENTIFFMDKENVPIASCQSGDTVIFETKDCFSDQITNEEQALTSIDFNRVNPATGPLYVEGARRGDMLEIEILDIKVGKQGVMTAAPGLGALGESLNSPTTKLFPIEGDDVVYSTGLRLPLQPMIGVIGTAPPGEPINNGTPGPHGGNLDTKDIKPGTTVYLPVEVDGALLALGDLHAAMGDGEILICGVEIAGTVTLKVNVKKERMFPLPALKTDTHFMTIASAETLDAAAVQATKNMATFLANRTALSIEEAGMLLSGAGDLYVSQIVNPLKTARFSLALHYFEKLGVDLCN | not failed
MPNQVLFCITKMRYEEKRIYHYLEESGLSIKIMLDSSNLDEVVAHNSDYCLCIVRVMSQHRAFRIAEYMEALGIPTLNSSRAIQICADKAIQALILANRDVIKQPHFSILRNYEDLSNFNGKMVVKPVSSSWGRGISLIENEDALTTWKISHQELDIQNQNLPYLIQEFIDKPNYDVRIVIINTKPVVAFKRVSANNWKTNTHLGATVVPIVIDDSINKIVTEIIKVVGPGIYGLDLMKNRQNEWIFCEINQNPEFAHSWKIHHVDVAEKIAQYVSSKVKVGQKNASTHLEHHHHHH | failed
QKVPLPSLSPTMQAGTIARWEKKEGDKINEGDLIAEVETDKATVGFESLEECYMAKILVAEGTRDVPIGAIICITVGKPEDIEAFKNYTLDSSAA | not failed
